Where “and” joins values, the source holds several entries; their conditions need not be identical. Identical values can stand only once. Like-named read-outs stand apart in the source and are kept apart here. Where no end group is shown, it is not given here. The star is where a group is joined. Biotin = O=C1N[C@H]2[C@H](CS[C@H]2CCCCC(=O)*)N1
B1: PDZ3 (A) domain of hDlg (domain or fragment, human, UniProt Q12959 457-558, looked up)
chain: DDEITREPRKVVLHRGSTGLGFNIVGGEDGEGIFISFILAGGPADLSGELRKGDRIISVNSVDLRAASHEQAAAALKNAGQAVTIVAQYRPEEYSRFEAKIH

What was measured:
SEC = target: the molecule itself; assay: SEC
[1] = target: T1, GST-PDZ1+2+3 fusion protein of hDlg (human, UniProt Q12959 201-584); assay: SPR
T1 sequence (Q12959 201-584): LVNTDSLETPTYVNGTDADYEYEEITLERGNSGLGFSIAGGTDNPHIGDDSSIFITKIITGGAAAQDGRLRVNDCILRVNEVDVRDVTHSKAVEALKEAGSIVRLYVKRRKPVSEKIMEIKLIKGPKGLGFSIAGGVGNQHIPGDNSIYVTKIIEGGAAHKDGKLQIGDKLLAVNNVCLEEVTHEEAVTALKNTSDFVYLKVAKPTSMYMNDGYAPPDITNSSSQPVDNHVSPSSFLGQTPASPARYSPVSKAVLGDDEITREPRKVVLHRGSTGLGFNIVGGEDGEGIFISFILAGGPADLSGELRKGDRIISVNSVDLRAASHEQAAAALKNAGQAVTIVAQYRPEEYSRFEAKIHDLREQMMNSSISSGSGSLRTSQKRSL

[2] = target: T1, GST-PDZ1+2+3 fusion protein of hDlg; assay: SPR; remark: listed apart in the source
[3] = target: PDZ1+2 (A) module of hDlg (human, UniProt Q12959 205-411); assay: SPR
PDZ1+2 (A) module of hDlg, sequence (Q12959 205-411): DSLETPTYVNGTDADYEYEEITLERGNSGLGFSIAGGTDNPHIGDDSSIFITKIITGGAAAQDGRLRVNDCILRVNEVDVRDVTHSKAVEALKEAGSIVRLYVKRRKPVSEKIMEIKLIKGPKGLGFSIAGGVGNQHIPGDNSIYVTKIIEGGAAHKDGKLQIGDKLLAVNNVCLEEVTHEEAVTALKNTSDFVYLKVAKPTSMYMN

Row | Binder | stoichiometry N (SEC) | Kd [1] | koff [1] | kon [1] | Kd [2] | koff [2] | kon [2] | Kd [3] | koff [3] | kon [3]
1 | B1 | 2 |  |  |  |  |  |  |  |  | 
2 | Biotin-SGSGDKNNCSNAKAVETDV [biotinylated synthetic peptide of the COOH terminus of the Kv1.4 potassium channel] |  | 160 nM | 0.024 s⁻¹ | 150000 M⁻¹ s⁻¹ | 11 nM | 0.002 s⁻¹ | 180000 M⁻¹ s⁻¹ | 33 ± 5 nM | 0.0149 s⁻¹ and 0.0135 s⁻¹ | 413000 M⁻¹ s⁻¹
